From article PMC6989145

What was measured:
[1] = molecular target: murine perforin-2 (mPFN2) ectodomain (mouse) (UniProt A1L314); assay: cryo-EM structure; pre-pore oligomers formed in solution: 0.5 mg/ml in 50 mM citric acid buffer pH 5.5, 150 mM NaCl, 37°C overnight; purified by SEC (Superose 6); 0.01% Tween 20 added; C16 symmetry
[2] = molecular target: murine perforin-2 (mPFN2) ectodomain (mouse) (UniProt A1L314); assay: high-speed atomic force microscopy; PFN2 monomers (0.043 mg/ml) incubated 5 min directly on freshly cleaved mica; 20 mM Hepes-NaOH pH 7.5, 200 mM NaCl, 2 mM CaCl2
[3] = molecular target: murine perforin-2 (mPFN2) ectodomain (mouse) (UniProt A1L314); assay: cryo-EM structure; pore: pre-pore sample lowered to pH 3.6 to 4.0 with 0.056% Cymal-6, room temperature, 30 min; C16 symmetry
[4] = molecular target: murine perforin-2 (mPFN2) ectodomain (mouse) (UniProt A1L314); assay: high-speed atomic force microscopy; PFN2 monomers (0.043 mg/ml) incubated 5 min on a mica-supported E. coli lipid bilayer; 20 mM Hepes-NaOH pH 7.5, 200 mM NaCl, 2 mM CaCl2; subunit association and dissociation at incomplete rings, frames of 500 ms

stoichiometry N [1]: 16 subunits
stoichiometry N [2]: 1 to 16 subunits
stoichiometry N [3]: 16
subunit association rate (subunits·s^−1) [4]: 2.4
Substance: murine perforin-2 (mPFN2) ectodomain (from UniProt A1L314 20-652) (domain or fragment)
